The results in this text go back to US20040029228A1.

Assay in all cases: cell-based or functional assay
For assay [1], the target named is T1, human zcytor19 (Zyctor19) cytokine receptor (human).
T1 sequence (Q8IU57 1-520, looked up): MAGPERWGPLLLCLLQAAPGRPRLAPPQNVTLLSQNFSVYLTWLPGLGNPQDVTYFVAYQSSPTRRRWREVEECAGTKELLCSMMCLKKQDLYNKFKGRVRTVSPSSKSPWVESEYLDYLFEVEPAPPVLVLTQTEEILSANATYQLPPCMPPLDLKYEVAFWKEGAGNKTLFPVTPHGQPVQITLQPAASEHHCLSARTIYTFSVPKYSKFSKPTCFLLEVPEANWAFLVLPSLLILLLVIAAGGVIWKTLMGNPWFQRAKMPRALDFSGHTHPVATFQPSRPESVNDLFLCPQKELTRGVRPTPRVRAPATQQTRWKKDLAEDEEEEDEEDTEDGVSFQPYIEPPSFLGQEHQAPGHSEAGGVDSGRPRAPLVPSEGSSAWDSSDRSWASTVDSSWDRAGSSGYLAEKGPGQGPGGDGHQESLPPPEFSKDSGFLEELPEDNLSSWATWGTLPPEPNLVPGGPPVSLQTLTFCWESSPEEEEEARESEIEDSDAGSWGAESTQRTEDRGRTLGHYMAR

Assay [2] concerns the target human CRF2-4 (IL10Rb) (human).
Assay [3] concerns the target zcytoR19 and IL10Rb (CRF2-4) co-expressed on cells (heterodimeric receptor) (human).

human CRF2-4 (IL10Rb) (human), sequence (Q08334 whole entry): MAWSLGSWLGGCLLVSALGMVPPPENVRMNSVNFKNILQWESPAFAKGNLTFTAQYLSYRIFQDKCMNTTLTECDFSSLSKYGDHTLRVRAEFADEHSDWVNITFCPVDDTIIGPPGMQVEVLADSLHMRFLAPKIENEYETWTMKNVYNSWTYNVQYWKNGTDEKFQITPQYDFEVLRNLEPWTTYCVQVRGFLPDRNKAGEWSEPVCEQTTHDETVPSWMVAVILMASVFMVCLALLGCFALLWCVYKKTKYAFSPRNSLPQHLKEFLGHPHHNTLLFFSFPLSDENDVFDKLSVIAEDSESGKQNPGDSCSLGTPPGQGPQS
zcyto21 (ligand), sequence (Q8IU54 20-200): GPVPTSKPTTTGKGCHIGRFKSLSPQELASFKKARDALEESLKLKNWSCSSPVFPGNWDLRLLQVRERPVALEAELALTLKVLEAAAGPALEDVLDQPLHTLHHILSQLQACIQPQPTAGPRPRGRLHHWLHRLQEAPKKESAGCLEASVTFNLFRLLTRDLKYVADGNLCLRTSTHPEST

As to “huIL10 (from UniProt P22301 19-178) (ligand)”, in assay [1], the ISRE-luciferase fold induction, 293 cells transfected with ISRE-Luc./Zcytor19, HuIL10 100 ng/ml (fold induction) was 0.5.

“zcyto10 (from UniProt Q9NYY1 25-176) (ligand)” yielded an ISRE-luciferase fold induction, 293 cells transfected with ISRE-Luc./Zcytor19, Zcyto10 125 ng/ml (fold induction) in assay [1] of 1.

In assay [2], zcyto20-CEE (ligand) displayed an Optical Density (570 nm) of EMCV-infected cells, HuzcytoR19-overexpressing 293 cells, Zcyto20-CEE 0.5 ng/ml, Anti-IL10Rb 5 µg/ml of 0.95 OD 570 nm; an Optical Density (570 nm) of EMCV-infected cells, HuzcytoR19-overexpressing 293 cells, Zcyto20-CEE 0.5 ng/ml, Anti-LeptinR control antibody 5 µg/ml of 2.24 OD 570 nm; an Optical Density (570 nm) of EMCV-infected cells, wild-type 293 cells, Zcyto20-CEE 200 ng/ml, Anti-IL10Rb 5 µg/ml of 0.94 OD 570 nm; an Optical Density (570 nm) of EMCV-infected cells, wild-type 293 cells, Zcyto20-CEE 200 ng/ml, Anti-LeptinR control antibody 5 µg/ml of 1.88 OD 570 nm.

Consider zcyto21 (ligand), for which, in assay [2], the ISRE-luciferase fold induction, wild-type 293 cells, Zcyto21 0.001 ng/ml (fold induction) stood at 1.2; the ISRE-luciferase fold induction, wild-type 293 cells, Zcyto21 0.001 ng/ml + IL10Rb neutralizing Antibody (fold induction) stood at 1.3; the ISRE-luciferase fold induction, wild-type 293 cells, Zcyto21 0.01 ng/ml (fold induction) is 1.2; the ISRE-luciferase fold induction, wild-type 293 cells, Zcyto21 0.01 ng/ml + IL10Rb neutralizing Antibody (fold induction) stood at 1.3. Further, in assay [2], the ISRE-luciferase fold induction, wild-type 293 cells, Zcyto21 0.1 ng/ml (fold induction) turned out to be 1.1; the ISRE-luciferase fold induction, wild-type 293 cells, Zcyto21 0.1 ng/ml + IL10Rb neutralizing Antibody (fold induction) was 1.3; the ISRE-luciferase fold induction, wild-type 293 cells, Zcyto21 1 ng/ml (fold induction) amounted to 1.5; the ISRE-luciferase fold induction, wild-type 293 cells, Zcyto21 1 ng/ml + IL10Rb neutralizing Antibody (fold induction) came out at 1.3. For the same substance, in assay [2], the ISRE-luciferase fold induction, wild-type 293 cells, Zcyto21 10 ng/ml (fold induction) is 3.2; the ISRE-luciferase fold induction, wild-type 293 cells, Zcyto21 10 ng/ml + IL10Rb neutralizing Antibody (fold induction) was found to be 1.4; the ISRE-luciferase fold induction, wild-type 293 cells, Zcyto21 100 ng/ml (fold induction) turned out to be 4.1; the ISRE-luciferase fold induction, wild-type 293 cells, Zcyto21 100 ng/ml + IL10Rb neutralizing Antibody (fold induction) was 1.8. For the same substance, in assay [2], the ISRE-luciferase fold induction, zcytoR19-overexpressing 293 cells, Zcyto21 0.001 ng/ml (fold induction) came to 1.1; the ISRE-luciferase fold induction, zcytoR19-overexpressing 293 cells, Zcyto21 0.001 ng/ml + IL10Rb neutralizing Antibody (fold induction) came to 1; the ISRE-luciferase fold induction, zcytoR19-overexpressing 293 cells, Zcyto21 0.01 ng/ml (fold induction) was determined as 1.5; the ISRE-luciferase fold induction, zcytoR19-overexpressing 293 cells, Zcyto21 0.01 ng/ml + IL10Rb neutralizing Antibody (fold induction) was found to be 1.1. In assay [2], the ISRE-luciferase fold induction, zcytoR19-overexpressing 293 cells, Zcyto21 0.1 ng/ml (fold induction) was 3.5; the ISRE-luciferase fold induction, zcytoR19-overexpressing 293 cells, Zcyto21 0.1 ng/ml + IL10Rb neutralizing Antibody (fold induction) was 1; the ISRE-luciferase fold induction, zcytoR19-overexpressing 293 cells, Zcyto21 1 ng/ml (fold induction) was determined as 35; the ISRE-luciferase fold induction, zcytoR19-overexpressing 293 cells, Zcyto21 1 ng/ml + IL10Rb neutralizing Antibody (fold induction) was 5.8. For the same substance, in assay [2], the ISRE-luciferase fold induction, zcytoR19-overexpressing 293 cells, Zcyto21 10 ng/ml (fold induction) came out at 48; the ISRE-luciferase fold induction, zcytoR19-overexpressing 293 cells, Zcyto21 10 ng/ml + IL10Rb neutralizing Antibody (fold induction) was 28; the ISRE-luciferase fold induction, zcytoR19-overexpressing 293 cells, Zcyto21 100 ng/ml (fold induction) turned out to be 45; the ISRE-luciferase fold induction, zcytoR19-overexpressing 293 cells, Zcyto21 100 ng/ml + IL10Rb neutralizing Antibody (fold induction) turned out to be 31. In assay [1], the ISRE-luciferase fold induction, BHK cells transfected with zcytoR19 alone, zcyto21 0.001 ng/ml (fold induction) turned out to be 1.3; the ISRE-luciferase fold induction, BHK cells transfected with zcytoR19 alone, zcyto21 0.01 ng/ml (fold induction) amounted to 1.4; the ISRE-luciferase fold induction, BHK cells transfected with zcytoR19 alone, zcyto21 0.1 ng/ml (fold induction) turned out to be 1.4; the ISRE-luciferase fold induction, BHK cells transfected with zcytoR19 alone, zcyto21 1 ng/ml (fold induction) is 2. In assay [1], the ISRE-luciferase fold induction, BHK cells transfected with zcytoR19 alone, zcyto21 10 ng/ml (fold induction) amounted to 2.4; the ISRE-luciferase fold induction, BHK cells transfected with zcytoR19 alone, zcyto21 100 ng/ml (fold induction) was 2.6; the ISRE-luciferase fold induction, BHK cells transfected with zcytoR19 alone, zcyto21 1000 ng/ml (fold induction) is 3.3. In assay [3], the ISRE-luciferase fold induction, BHK cells transfected with zcytoR19 and IL10Rb (CRF2-4), zcyto21 0.001 ng/ml (fold induction) was 1.3; the ISRE-luciferase fold induction, BHK cells transfected with zcytoR19 and IL10Rb (CRF2-4), zcyto21 0.01 ng/ml (fold induction) amounted to 1.6; the ISRE-luciferase fold induction, BHK cells transfected with zcytoR19 and IL10Rb (CRF2-4), zcyto21 0.1 ng/ml (fold induction) was found to be 2.2; the ISRE-luciferase fold induction, BHK cells transfected with zcytoR19 and IL10Rb (CRF2-4), zcyto21 1 ng/ml (fold induction) was 2.5. For the same substance, in assay [3], the ISRE-luciferase fold induction, BHK cells transfected with zcytoR19 and IL10Rb (CRF2-4), zcyto21 10 ng/ml (fold induction) was 2.6; the ISRE-luciferase fold induction, BHK cells transfected with zcytoR19 and IL10Rb (CRF2-4), zcyto21 100 ng/ml (fold induction) turned out to be 2.5; the ISRE-luciferase fold induction, BHK cells transfected with zcytoR19 and IL10Rb (CRF2-4), zcyto21 1000 ng/ml (fold induction) turned out to be 2.2.

For zcyto20 (ligand), in assay [2], the ISRE-luciferase fold induction, wild-type 293 cells, Zcyto20 0.01 ng/ml (fold induction) is 1; the ISRE-luciferase fold induction, wild-type 293 cells, Zcyto20 0.01 ng/ml + IL10Rb neutralizing Antibody (fold induction) stood at 0.8; the ISRE-luciferase fold induction, wild-type 293 cells, Zcyto20 0.1 ng/ml (fold induction) is 1; the ISRE-luciferase fold induction, wild-type 293 cells, Zcyto20 0.1 ng/ml + IL10Rb neutralizing Antibody (fold induction) turned out to be 1. Further, in assay [2], the ISRE-luciferase fold induction, wild-type 293 cells, Zcyto20 1 ng/ml (fold induction) worked out at 1; the ISRE-luciferase fold induction, wild-type 293 cells, Zcyto20 1 ng/ml + IL10Rb neutralizing Antibody (fold induction) is 0.9; the ISRE-luciferase fold induction, wild-type 293 cells, Zcyto20 10 ng/ml (fold induction) is 4; the ISRE-luciferase fold induction, wild-type 293 cells, Zcyto20 10 ng/ml + IL10Rb neutralizing Antibody (fold induction) is 0.9. Moreover, in assay [2], the ISRE-luciferase fold induction, wild-type 293 cells, Zcyto20 100 ng/ml (fold induction) came out at 8.4; the ISRE-luciferase fold induction, wild-type 293 cells, Zcyto20 100 ng/ml + IL10Rb neutralizing Antibody (fold induction) was found to be 0.8; the ISRE-luciferase fold induction, zcytoR19-overexpressing 293 cells, Zcyto20 0.01 ng/ml (fold induction) is 1.1; the ISRE-luciferase fold induction, zcytoR19-overexpressing 293 cells, Zcyto20 0.01 ng/ml + IL10Rb neutralizing Antibody (fold induction) amounted to 1.2. In addition, in assay [2], the ISRE-luciferase fold induction, zcytoR19-overexpressing 293 cells, Zcyto20 0.1 ng/ml (fold induction) came to 6; the ISRE-luciferase fold induction, zcytoR19-overexpressing 293 cells, Zcyto20 0.1 ng/ml + IL10Rb neutralizing Antibody (fold induction) is 1.1; the ISRE-luciferase fold induction, zcytoR19-overexpressing 293 cells, Zcyto20 1 ng/ml (fold induction) is 68; the ISRE-luciferase fold induction, zcytoR19-overexpressing 293 cells, Zcyto20 1 ng/ml + IL10Rb neutralizing Antibody (fold induction) was found to be 1.3. Besides, in assay [2], the ISRE-luciferase fold induction, zcytoR19-overexpressing 293 cells, Zcyto20 10 ng/ml (fold induction) stood at 97; the ISRE-luciferase fold induction, zcytoR19-overexpressing 293 cells, Zcyto20 10 ng/ml + IL10Rb neutralizing Antibody (fold induction) stood at 23; the ISRE-luciferase fold induction, zcytoR19-overexpressing 293 cells, Zcyto20 100 ng/ml (fold induction) was determined as 91; the ISRE-luciferase fold induction, zcytoR19-overexpressing 293 cells, Zcyto20 100 ng/ml + IL10Rb neutralizing Antibody (fold induction) came out at 60. In assay [1], this substance returned an ISRE-luciferase fold induction, 293 cells transfected with ISRE-Luc./Zcytor19, Zcyto20 125 ng/ml (fold induction) of 125; an ISRE-luciferase fold induction, BHK cells transfected with zcytoR19 alone, zcyto20 0.001 ng/ml (fold induction) of 1.4; an ISRE-luciferase fold induction, BHK cells transfected with zcytoR19 alone, zcyto20 0.01 ng/ml (fold induction) of 1.2; an ISRE-luciferase fold induction, BHK cells transfected with zcytoR19 alone, zcyto20 0.1 ng/ml (fold induction) of 1.25. In assay [1], the ISRE-luciferase fold induction, BHK cells transfected with zcytoR19 alone, zcyto20 1 ng/ml (fold induction) amounted to 1.3; the ISRE-luciferase fold induction, BHK cells transfected with zcytoR19 alone, zcyto20 10 ng/ml (fold induction) was 2.1; the ISRE-luciferase fold induction, BHK cells transfected with zcytoR19 alone, zcyto20 100 ng/ml (fold induction) turned out to be 2.2; the ISRE-luciferase fold induction, BHK cells transfected with zcytoR19 alone, zcyto20 1000 ng/ml (fold induction) stood at 2.25. In assay [3], this substance gave an ISRE-luciferase fold induction, BHK cells transfected with zcytoR19 and IL10Rb (CRF2-4), zcyto20 0.001 ng/ml (fold induction) of 1.5; an ISRE-luciferase fold induction, BHK cells transfected with zcytoR19 and IL10Rb (CRF2-4), zcyto20 0.01 ng/ml (fold induction) of 1.6; an ISRE-luciferase fold induction, BHK cells transfected with zcytoR19 and IL10Rb (CRF2-4), zcyto20 0.1 ng/ml (fold induction) of 2.1; an ISRE-luciferase fold induction, BHK cells transfected with zcytoR19 and IL10Rb (CRF2-4), zcyto20 1 ng/ml (fold induction) of 2.5. In assay [3], this substance had an ISRE-luciferase fold induction, BHK cells transfected with zcytoR19 and IL10Rb (CRF2-4), zcyto20 10 ng/ml (fold induction) of 2.4; an ISRE-luciferase fold induction, BHK cells transfected with zcytoR19 and IL10Rb (CRF2-4), zcyto20 100 ng/ml (fold induction) of 2.6; an ISRE-luciferase fold induction, BHK cells transfected with zcytoR19 and IL10Rb (CRF2-4), zcyto20 1000 ng/ml (fold induction) of 2.1.
